Patent US20080063635A1 (Kyowa Kirin, published 2008)

target: T1, CD40 (UniProt P25942 21-277, limits assumed); test: flow cytometry on Ramos cells, R-PE anti-human antibody
T1 construct: whole, on cells; also called CD40 on Ramos cells
Protocol: A Ramos cell line was suspended in a PBS staining buffer (SB) containing 0.1% NaN₃ and 2% FCS at a concentration of 2×10⁶/ml. The cell suspension (100 μl/well) was dispensed into wells of a 96-well round-bottom plate (manufactured by Becton, Dickinson and Company). Each hybridoma culture supernatant (50 μl) was added thereto, followed by incubation at a temperature below freezing for 30 minutes. A human IgG1 antibody to human serum albumin as a negative control was adjusted to a concentration of 2 μg/ml in a hybridoma culture medium. The medium (50 μl) was added to the plate, followed by incubation at a temperature below freezing for 15 minutes. After washing the plate with SB, 50 μl of a 250-fold diluted R-PE fluorescently labeled anti-human antibody (Southern Biotechnology Associates, Inc.) was added to the plate, followed by incubation at a temperature below freezing for 15 minutes. After washing with SB twice, the plate was suspended in 300 to 500 μl of a FACS buffer, and the fluorescence intensity of each cell was measured using FACS (FACSort, FACScan, manufactured by Becton, Dickinson and Company).

T1 sequence (P25942 21-277 limits assumed): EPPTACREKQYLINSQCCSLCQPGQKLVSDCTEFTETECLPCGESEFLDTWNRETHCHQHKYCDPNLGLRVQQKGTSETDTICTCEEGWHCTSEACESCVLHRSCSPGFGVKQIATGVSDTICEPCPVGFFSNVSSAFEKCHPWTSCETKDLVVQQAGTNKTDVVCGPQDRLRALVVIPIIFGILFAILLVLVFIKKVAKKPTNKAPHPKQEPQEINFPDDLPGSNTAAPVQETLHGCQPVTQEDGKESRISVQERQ

binding result | Binder
binds | 4D11-G[1/1/4/4] (antibody, V domains shown, Chimeric heavy chain constant region: CH1 and hinge from human IgG1 (N5KG1), CH2 and CH3 from human IgG4 (N5KG4PE); also called IgG[1/1/4/4]; N5KG1144 with 4D11 variable regions) VH: QLQLQESGPGLLKPSETLSLTCTVSGGSISSPGYYGGWIRQPPGKGLEWIGSIYKSGSTYHNPSLKSRVTISVDTSKNQFSLKLSSVTAADTAVYYCTRPVVRYFGWFDPWGQGTLVTVSS VL: AIQLTQSPSSLSASVGDRVTITCRASQGISSALAWYQQKPGKAPKLLIYDASNLESGVPSRFSGSGSGTDFTLTISSLQPEDFATYYCQQFNSYPTFGQGTKVEIK
binds | 4D11-G[4/4/4/1] (antibody, V domains shown, Chimeric heavy chain constant region: CH1, hinge and CH2 from human IgG4 (N5KG4PE, with S228P and L235E), CH3 from human IgG1; also called IgG[4/4/4/1]; N5KG4441 with 4D11 variable regions) VH: QLQLQESGPGLLKPSETLSLTCTVSGGSISSPGYYGGWIRQPPGKGLEWIGSIYKSGSTYHNPSLKSRVTISVDTSKNQFSLKLSSVTAADTAVYYCTRPVVRYFGWFDPWGQGTLVTVSS VL: AIQLTQSPSSLSASVGDRVTITCRASQGISSALAWYQQKPGKAPKLLIYDASNLESGVPSRFSGSGSGTDFTLTISSLQPEDFATYYCQQFNSYPTFGQGTKVEIK
binds | 4D11-G[4/4/1/1] (antibody, V domains shown, Chimeric heavy chain constant region: CH1 and hinge from human IgG4 (N5KG4PE, with S228P and L235E), CH2 and CH3 from human IgG1 (N5KG1); also called IgG[4/4/1/1]; N5KG4411 with 4D11 variable regions) VH: QLQLQESGPGLLKPSETLSLTCTVSGGSISSPGYYGGWIRQPPGKGLEWIGSIYKSGSTYHNPSLKSRVTISVDTSKNQFSLKLSSVTAADTAVYYCTRPVVRYFGWFDPWGQGTLVTVSS VL: AIQLTQSPSSLSASVGDRVTITCRASQGISSALAWYQQKPGKAPKLLIYDASNLESGVPSRFSGSGSGTDFTLTISSLQPEDFATYYCQQFNSYPTFGQGTKVEIK
binds | 4D11-G[4/4/1/4] (antibody, V domains shown, Chimeric heavy chain constant region: CH1 and hinge from human IgG4 (N5KG4PE, with S228P and L235E), CH2 from human IgG1, CH3 from human IgG4; also called IgG[4/4/1/4]; N5KG4414 with 4D11 variable regions) VH: QLQLQESGPGLLKPSETLSLTCTVSGGSISSPGYYGGWIRQPPGKGLEWIGSIYKSGSTYHNPSLKSRVTISVDTSKNQFSLKLSSVTAADTAVYYCTRPVVRYFGWFDPWGQGTLVTVSS VL: AIQLTQSPSSLSASVGDRVTITCRASQGISSALAWYQQKPGKAPKLLIYDASNLESGVPSRFSGSGSGTDFTLTISSLQPEDFATYYCQQFNSYPTFGQGTKVEIK
